One may read the Kd as the free concentration of one partner at which half of the binding sites on the other are occupied at equilibrium, for simple one-to-one binding.

Holding throughout (test): SPR
On the technique in general: In SPR one partner is held on a chip, and binding of the other changes the refractive index at the surface.

Assay [1] concerns the target human Langerin ectodomain (recombinant) (Homo sapiens, UniProt Q9UJ71).
The target of assay [2] is mouse Langerin ectodomain (recombinant) (Mus musculus, UniProt Q8VBX4).
Assay [3] has as its target T1, rabbit Langerin ectodomain (recombinant) (rabbit).
T1 chain: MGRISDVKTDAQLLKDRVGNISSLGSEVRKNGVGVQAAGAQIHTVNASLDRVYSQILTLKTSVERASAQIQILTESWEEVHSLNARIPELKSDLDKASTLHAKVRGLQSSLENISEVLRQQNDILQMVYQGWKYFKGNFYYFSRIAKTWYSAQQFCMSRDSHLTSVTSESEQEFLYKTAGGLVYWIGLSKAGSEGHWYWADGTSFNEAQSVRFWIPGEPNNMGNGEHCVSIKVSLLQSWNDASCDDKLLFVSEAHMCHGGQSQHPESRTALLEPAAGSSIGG

Sequence of human Langerin ectodomain (recombinant) (Q9UJ71 65-328): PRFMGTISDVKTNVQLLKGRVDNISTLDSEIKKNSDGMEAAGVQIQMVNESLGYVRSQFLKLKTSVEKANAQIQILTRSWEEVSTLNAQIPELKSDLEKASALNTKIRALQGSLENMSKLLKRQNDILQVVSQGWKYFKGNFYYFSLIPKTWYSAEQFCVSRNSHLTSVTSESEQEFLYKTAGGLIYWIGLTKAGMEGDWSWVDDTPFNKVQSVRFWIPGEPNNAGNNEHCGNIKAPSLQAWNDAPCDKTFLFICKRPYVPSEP
Sequence of mouse Langerin ectodomain (recombinant) (Q8VBX4 63-331): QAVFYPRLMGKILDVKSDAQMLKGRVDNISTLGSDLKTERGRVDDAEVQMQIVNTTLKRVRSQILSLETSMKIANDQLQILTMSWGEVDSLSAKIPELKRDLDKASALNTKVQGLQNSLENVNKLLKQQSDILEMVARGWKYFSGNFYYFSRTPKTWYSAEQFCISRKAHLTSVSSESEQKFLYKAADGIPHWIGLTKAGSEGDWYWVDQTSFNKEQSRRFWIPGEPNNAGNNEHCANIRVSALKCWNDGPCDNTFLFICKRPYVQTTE

B1: LC^3.Env^3 (fibritin-stabilised HIV-1 Env gp140z trimer fused to three scFv of the anti-Langerin 4C7 mAb) (scFv, V domains shown)
VH: QVQLQQSGAELVRPGASVTLSCKASGYTFIDHDMHWVQQTPVYGLEWIGAIDPETGDTGYNQKFKGKAILTADKSSRTAYMELRSLTSEDSAVYYCTIPFYYSNYSPFAYWGQGTLVTVSA
VL: QIVLSQSPAILSASPGEKVTMTCRASSSVSYMHWYQRKPGSSPKPWIYATSNLASGVPARFSGSGSGTSYSLTISRVEAEDAATYYCQQWSSNPLTFGAGTKLELK
With B1, the Kd in assay [1], in assay [2] and in assay [3] was approximately 3.5 nM each time.

B2: LC.Env (anti-Langerin 4C7 mAb fused to HIV-1 envelope gp140z from clade C 96ZM651) (antibody, V domains shown)
VH: B1 VH
VL: B1 VL
In the case of B2, the dissociation constant Kd in assay [1], in assay [2] and in assay [3] was approximately 0.7 nM each time.

Values taken from PMC13157019 (eBioMedicine, 2026).
